Measurements from paper PMC11923092.

What was measured:
[1] = SEC; constructs with partial Aes^N fragments fused to MBP, 30 µM each; aggregate and monomer content
[2] = SEC; construct with a partial Aes^N fragment fused to MBP at 150 µM; aggregate content
[3] = SEC; analytical SEC without prior concentration adjustment; cysteine-containing proteins reduced with 0.5 mM TCEP before SEC
[4] = SEC; 1P at an isolated protein concentration of 45 µM; monomer against aggregate
[5] = SEC; Superdex 200 10/300, 4 °C, 0.75 mL/min, assay buffer; protein as isolated; soluble aggregate at the void volume against the monomer
[6] = SEC; analytical SEC at 15 °C after dilution to 10 µM and 24 h at 15 °C in 50 mM Tris, 300 mM NaCl, pH 7; aggregate/monomer ratio from peak areas

13P, MBP fusion of Aes^N aa62-120
aggregated fraction (SEC) [1]: showed a significant aggregated fraction (53%)

14P, MBP fusion of Aes^N aa69-120
aggregated fraction (SEC) [2]: 9% at 30 µM and 15% at 150 µM | aggregated fraction (SEC) [1]: 9% at 30 µM and 15% at 150 µM

GFP-Npu^N-H6 (27P)
monomeric fraction (SEC) [3]: this precursor existed to only 43% as a monomer

MBP-Aes^N-H6 (1P)
monomeric fraction (SEC) [4]: at 45 µM and 135 µM only about 4% and no detectable monomeric species were present | aggregated fraction (SEC) [5]: about 71% of the protein | monomeric fraction (SEC) [5]: about 29% | monomeric fraction (SEC) [6]: 19% measured for the WT (1P)

MBP-Ssp^N-H6 (25P)
aggregated fraction (SEC) [3]: high-molecular weight aggregate fraction (ca. 66%) | monomeric fraction (SEC) [3]: a monomeric fraction (ca. 34%)
